{
  "source": "patent US6927286B1",
  "about": "“Bleomycin gene cluster components and their uses” (The Regents of the University of California, priority 1999, dated 2005)",
  "key": {"[1]": {"biological_target": "apo-BlmI (type II peptidyl carrier protein BlmI, apo-form, produced from pBS2) (Streptomyces verticillus ATCC15003)", "test": "cell-based or functional assay"}, "[2]": {"system": "T1, holo-BlmI (4'-phosphopantetheinylated BlmI, produced from pBS2)", "T1 sequence": "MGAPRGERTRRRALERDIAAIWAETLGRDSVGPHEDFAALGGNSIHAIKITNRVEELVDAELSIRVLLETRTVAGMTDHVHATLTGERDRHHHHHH"}, "[3]": {"system": "T2, apo-BlmI (type II peptidyl carrier protein BlmI, apo-form, produced from pBS2)", "T2 sequence": "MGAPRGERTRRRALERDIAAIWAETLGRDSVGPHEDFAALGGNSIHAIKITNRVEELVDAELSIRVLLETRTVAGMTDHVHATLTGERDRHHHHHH"}, "[4]": {"biological_target": "T3, apo-BlmI (type II peptidyl carrier protein BlmI, apo-form, produced from pBS2)", "T3 chain": "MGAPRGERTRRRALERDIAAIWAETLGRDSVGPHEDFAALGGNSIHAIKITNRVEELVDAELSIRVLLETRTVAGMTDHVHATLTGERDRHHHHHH"}, "apo-BlmI": {"system": "apo-BlmI", "test": "In vitro 4′-phosphopantetheinylation of BlmI by Sfp with [3H-pantetheine]-CoA", "assay_type": "biochemical, Streptomyces verticillus", "settings": "autoradiographic analysis", "experimental": "To investigate 4′-phosphopantetheinylation of BlmI in vitro, we chose the Sfp protein as the preferred PPTase, which had been isolated before from the surfactin producer Bacillus subtilis (Nakano et al. (1992) Mol. Gen. Genet. 232: 313-321).\nExpression of sfp in E. coli MV1190(pUC8-Sfp), purification of the Sfp PPTase to homogeneity, and 4′-phosphopantetheinylation of apo-BlmI by Sfp in vitro were carried out essentially according to literature procedures (Quadri et al. (1998) Biochemistry 37: 1585-1595; Nakano et al. (1992) Mol. Gen. Genet. 232: 313-321). A typical 100 μl assay solution contained 26 μM apo-BlmI, 2.9 μM Sfp, 25 μM [^3H-pantetheine]-CoA (0.9 μCi, 40 Ci/mM), 10 mM MgCl2, and 5 mM DTT, in 75 mM MES/NaOAc buffer, pH 6.0. After 30 min incubation at 37° C., the assays were stopped by addition of 5 μl of bovine serum albumin (0.2 mg/ml) and 0.9 ml of cold 10% (v/v) trichloroacetic acid (TCA). The precipitated proteins were collected by centrifugation at 14,000 rpm, 20 min, 4° C. (Eppendorf 5415C centrifuge), washed with 10% TCA three times, and resolved by SDS-PAGE on 15% gel. The ^3H-activity incorporated into holo-BlmI was similarly determined by autoradiography as described for in vivo labeling of holo-Blm with [3-^3H]-β-alanine."}, "Gsp PPTase": {"biological_target": "T4, Gsp PPTase (Aneurinibacillus migulanus, UniProt P40683)", "T4 construct": "expressed in transfected cells; host or cells: E. coli OG7001 (pBS2/pDPT-Gsp)", "T4 sequence (P40683 whole entry, looked up)": "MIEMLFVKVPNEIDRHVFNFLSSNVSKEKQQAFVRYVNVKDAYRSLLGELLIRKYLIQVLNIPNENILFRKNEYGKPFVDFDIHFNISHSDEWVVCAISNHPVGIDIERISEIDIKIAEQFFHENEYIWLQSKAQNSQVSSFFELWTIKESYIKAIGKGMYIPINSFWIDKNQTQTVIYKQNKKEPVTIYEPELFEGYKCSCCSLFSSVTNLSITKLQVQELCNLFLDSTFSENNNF", "test": "In vivo 4′-phosphopantetheinylation of BlmI co-expressed with gsp in E. coli OG7001", "assay_type": "cell-based", "settings": "E. coli OG7001(pBS2/pDPT-Gsp), HPLC analysis", "text": "(§1) To examine 4′-phosphopantetheinylation of BlmI in vivo, we chose E. coli OG7001 as the expression host, which is a β-alanine auxotroph derived from E. coli BL21(DE3) by P1 co-transduction of the panD mutation from E. coli SJ16 (Epple et al. (1998) J. Bacteriol. 180: 4950-4954). Upon introduction of pBS2 into E. coli OG7001, blmI was exceptionally well expressed and the overproduced BlmI protein was readily purified. […] To circumvent the poor endogenous PPTase activity, we next co-expressed blmI with the gsp gene, which was isolated from the gramicidin S producer Bacillus brevis, and encoded a PPTase that was known to 4′-phosphopantetheinylate heterologously produced PCPs in E. coli (Lambalot et al. (1996) Chem. Biol. 3: 923-936; Ku et al. (1997) Chem. Biol. 4: 203-207). We co-transformed pDPT-Gsp, in which the expression of the gsp gene was under the control of the T5/Lac promoter (Ku et al. (1997) Chem. Biol. 4: 203-207), and pBS2 into E. coli OG7001. BlmI was again very well expressed and the resulting BlmI protein was similarly purified. […]\n(§2) Samples of BlmI (30-70 μg) purified from E. coli OG7001(pBS2) or E. coli OG7001(pBS2/pDPT-Gsp) were analyzed on a Nova-Pak C18 column (5 mm×10, Waters, Milford, Mass.) using a Rainin DMAX HPLC unit. […]"}, "[5]": {"system": "E. coli endogenous PPTases", "test": "In vivo 4′-phosphopantetheinylation of BlmI in E. coli OG7001 without Gsp", "assay_type": "cell-based", "settings": "E. coli OG7001(pBS2), HPLC analysis", "text": "as §1, §2"}, "BlmVIII": {"system": "BlmVIII", "sequence (as listed by the source, one chain of several)": "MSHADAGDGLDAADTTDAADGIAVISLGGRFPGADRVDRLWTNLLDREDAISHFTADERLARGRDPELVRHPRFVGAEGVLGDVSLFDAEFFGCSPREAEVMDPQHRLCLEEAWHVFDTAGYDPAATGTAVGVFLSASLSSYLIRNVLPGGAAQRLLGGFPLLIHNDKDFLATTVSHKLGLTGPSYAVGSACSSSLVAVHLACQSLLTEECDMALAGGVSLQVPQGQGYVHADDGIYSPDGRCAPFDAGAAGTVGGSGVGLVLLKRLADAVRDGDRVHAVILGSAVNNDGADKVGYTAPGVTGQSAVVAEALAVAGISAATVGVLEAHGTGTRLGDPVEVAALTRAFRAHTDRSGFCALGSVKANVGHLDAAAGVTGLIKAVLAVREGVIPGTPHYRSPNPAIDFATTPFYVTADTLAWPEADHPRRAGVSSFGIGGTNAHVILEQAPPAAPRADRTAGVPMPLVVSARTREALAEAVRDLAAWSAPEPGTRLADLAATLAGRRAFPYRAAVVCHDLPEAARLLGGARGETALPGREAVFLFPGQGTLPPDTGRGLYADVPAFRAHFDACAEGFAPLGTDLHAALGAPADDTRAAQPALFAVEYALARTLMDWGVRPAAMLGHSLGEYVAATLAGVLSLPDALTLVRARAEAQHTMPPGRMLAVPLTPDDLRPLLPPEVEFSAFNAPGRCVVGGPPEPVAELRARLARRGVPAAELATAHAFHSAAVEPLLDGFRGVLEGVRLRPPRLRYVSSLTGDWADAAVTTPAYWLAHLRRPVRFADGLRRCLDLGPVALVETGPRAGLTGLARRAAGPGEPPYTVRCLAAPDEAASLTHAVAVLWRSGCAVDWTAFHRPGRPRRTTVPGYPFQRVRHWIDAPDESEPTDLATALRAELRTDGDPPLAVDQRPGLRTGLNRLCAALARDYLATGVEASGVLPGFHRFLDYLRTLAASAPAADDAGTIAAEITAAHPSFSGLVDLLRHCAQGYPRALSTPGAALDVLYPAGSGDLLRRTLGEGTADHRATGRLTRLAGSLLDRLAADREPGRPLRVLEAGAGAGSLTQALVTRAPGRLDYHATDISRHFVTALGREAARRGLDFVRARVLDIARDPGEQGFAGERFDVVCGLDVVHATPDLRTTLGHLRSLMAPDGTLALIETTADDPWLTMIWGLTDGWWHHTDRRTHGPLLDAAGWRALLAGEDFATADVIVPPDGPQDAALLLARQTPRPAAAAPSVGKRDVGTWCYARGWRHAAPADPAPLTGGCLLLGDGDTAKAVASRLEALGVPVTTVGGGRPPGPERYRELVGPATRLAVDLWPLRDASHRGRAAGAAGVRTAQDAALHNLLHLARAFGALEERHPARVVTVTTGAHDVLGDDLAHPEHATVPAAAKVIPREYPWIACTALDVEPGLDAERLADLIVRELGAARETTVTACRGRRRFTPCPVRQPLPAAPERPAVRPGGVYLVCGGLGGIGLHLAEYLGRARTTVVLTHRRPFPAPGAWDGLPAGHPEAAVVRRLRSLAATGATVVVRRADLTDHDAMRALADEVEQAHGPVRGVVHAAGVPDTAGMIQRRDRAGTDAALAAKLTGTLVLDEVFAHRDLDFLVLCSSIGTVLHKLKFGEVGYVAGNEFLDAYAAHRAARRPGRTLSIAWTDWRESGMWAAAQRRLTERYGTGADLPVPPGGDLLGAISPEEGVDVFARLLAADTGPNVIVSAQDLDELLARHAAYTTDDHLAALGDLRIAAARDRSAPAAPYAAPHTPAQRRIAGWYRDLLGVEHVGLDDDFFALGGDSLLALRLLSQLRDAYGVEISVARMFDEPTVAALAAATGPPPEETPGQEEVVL", "test": "In vitro phosphopantetheinylation assay of PptA", "assay_type": "biochemical, S. verticillus", "settings": "(3H)-(pantetheinyl)-CoASH, autoradiography"}, "BlmI": {"system": "BlmI", "test": "In vitro phosphopantetheinylation assay of PptA", "settings": "(3H)-(pantetheinyl)-CoASH, autoradiography"}, "TcmM": {"biological_target": "T5, TcmM (Streptomyces glaucescens, UniProt P12884)", "T5 construct": "His6 (N); His6 (C); made in house; host or cells: E. coli BL21(DE3) (pET28a-TcmM)", "T5 sequence (P12884 1-83)": "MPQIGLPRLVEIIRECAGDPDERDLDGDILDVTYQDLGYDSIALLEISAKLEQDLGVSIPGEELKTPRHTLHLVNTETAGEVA", "T5 sequence (Q9F0Q6 1-246 partner)": "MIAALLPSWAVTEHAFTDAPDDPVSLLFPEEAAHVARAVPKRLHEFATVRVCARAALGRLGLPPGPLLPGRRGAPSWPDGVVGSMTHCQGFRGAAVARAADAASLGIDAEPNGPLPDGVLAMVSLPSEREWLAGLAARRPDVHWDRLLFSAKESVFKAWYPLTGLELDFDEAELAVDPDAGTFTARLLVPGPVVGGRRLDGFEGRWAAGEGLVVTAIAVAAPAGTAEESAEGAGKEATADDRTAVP", "test": "In vitro phosphopantetheinylation assay of PptA", "assay_type": "biochemical, S. glaucescens", "settings": "(3H)-(pantetheinyl)-CoASH, autoradiography"}, "MBlmX-2": {"system": "MBlmX-2", "sequence (as listed by the source, one chain of several)": "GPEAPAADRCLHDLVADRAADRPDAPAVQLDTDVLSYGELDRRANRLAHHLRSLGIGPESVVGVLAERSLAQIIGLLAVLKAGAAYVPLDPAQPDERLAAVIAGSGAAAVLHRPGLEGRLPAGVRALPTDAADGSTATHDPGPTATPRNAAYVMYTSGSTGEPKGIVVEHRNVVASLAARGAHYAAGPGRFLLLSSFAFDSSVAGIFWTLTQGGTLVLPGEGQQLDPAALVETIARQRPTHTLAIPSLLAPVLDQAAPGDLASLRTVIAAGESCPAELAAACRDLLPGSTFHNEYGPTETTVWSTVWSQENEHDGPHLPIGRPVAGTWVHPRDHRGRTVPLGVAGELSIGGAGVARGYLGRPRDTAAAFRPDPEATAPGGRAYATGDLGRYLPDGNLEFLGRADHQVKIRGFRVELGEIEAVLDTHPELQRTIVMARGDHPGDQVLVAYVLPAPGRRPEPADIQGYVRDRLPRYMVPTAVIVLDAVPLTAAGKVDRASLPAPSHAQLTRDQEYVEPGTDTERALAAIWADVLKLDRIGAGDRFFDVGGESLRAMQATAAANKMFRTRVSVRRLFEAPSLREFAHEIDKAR", "test": "In vitro phosphopantetheinylation assay of PptA", "settings": "(3H)-(pantetheinyl)-CoASH, autoradiography"}},
  "data": [
    {"molecule": "Gsp PPTase from the gramicidin S producer Bacillus brevis (from UniProt P40683 1-237) (enzyme)", "values": [
      {"measurement": "in vivo 4′-phosphopantetheinylation on co-expression with gsp, HPLC analysis", "setting": "[1]", "value": "> 60", "unit": "%"}
    ]},
    {"molecule": "Val-A (adenylation domain of a type I NRPS from a gene cluster of Sv ATCC15003 unrelated to BLM biosynthesis)", "values": [
      {"measurement": "in vitro aminoacylation in trans with L-[^14C(U)]valine and ATP, SDS-PAGE and autoradiography", "setting": "[2]", "value": "the holo-BlmI was specifically labeled by L-[^14C(U)]valine in the presence of Val-A"},
      {"measurement": "in vitro aminoacylation in trans with L-[^14C(U)]valine and ATP, SDS-PAGE and autoradiography", "setting": "[3]", "value": "nor incubation of L-[^14C(U)]valine with the Val-A and apo-BlmI proteins, resulted in the detection of ^14C-labeled BlmI protein"}
    ]},
    {"molecule": "Sfp PPTase from the surfactin producer Bacillus subtilis (protein) MKIYGIYMDRPLSQEENERFMSFISPEKREKCRRFYHKEDAHRTLLGDVLVRSVISRQYQLDKSDIRFSTQEYGKPCIPDLPDAHFNISHSGRWVICAFDSQPIGIDIEKTKPISLEIAKRFFSKTEYSDLLAKDKDEQTDYFYHLWSMKESFIKQEGKGLSLPLDSFSVRLHQDGQVSIELPDSHSPCYIKTYEVDPGYKMAVCAAHPDFPEDITMVSYEELL", "values": [
      {"measurement": "in vitro 4′-phosphopantetheinylation with [^3H-pantetheine]-CoA, autoradiography", "setting": "[4]", "value": "the apo-BlmI was quantitatively labeled by [^3H-pantetheine]-CoA, and no labeling was observed in the absence of either the apo-BlmI or the Sfp PPTase protein"},
      {"measurement": "transfer of 4′-phosphopantetheine group from CoA to apo-BlmI", "setting": "apo-BlmI", "value": "can recognize apo-BlmI as a substrate"}
    ]},
    {"molecule": "BlmI: type II peptidyl carrier protein of 90 amino acids encoded by blmI (protein, left off: small tags and cut ends, type II peptidyl carrier protein of 90 amino acids encoded by blmI) MGAPRGERTRRRALERDIAAIWAETLGRDSVGPHEDFAALGGNSIHAIKITNRVEELVDAELSIRVLLETRTVAGMTDHVHATLTGERDRHHHHHH", "values": [
      {"measurement": "overproduced BlmI modified into the holo-BlmI protein", "setting": "Gsp PPTase", "value": "at least 60%"},
      {"measurement": "form of purified BlmI", "setting": "[5]", "value": "essentially in the apo-form"}
    ]},
    {"molecule": "PptA: phosphopantetheinyl transferase of 246 amino acids encoded by pptA from S. verticillus ATCC15003 (protein) MIAALLPSWAVTEHAFTDAPDDPVSLLFPEEAAHVARAVPKRLHEFATVRVCARAALGRLGLPPGPLLPGRRGAPSWPDGVVGSMTHCQGFRGAAVARAADAASLGIDAEPNGPLPDGVLAMVSLPSEREWLAGLAARRPDVHWDRLLFSAKESVFKAWYPLTGLELDFDEAELAVDPDAGTFTARLLVPGPVVGGRRLDGFEGRWAAGEGLVVTAIAVAAPAGTAEESAEGAGKEATADDRTAVPHHHHHH", "values": [
      {"measurement": "PPTase activity on type I ACP", "setting": "BlmVIII", "value": "able to posttranslationally modified"},
      {"measurement": "PPTase activity on type II PCP", "setting": "BlmI", "value": "robust phosphopantetheinylation activity"},
      {"measurement": "PPTase activity on type II ACP", "setting": "TcmM", "value": "able to posttranslationally modified"},
      {"measurement": "PPTase activity on type I PCP", "setting": "MBlmX-2", "value": "robust phosphopantetheinylation activity"}
    ]}
  ]
}
